Experimental data as given in US20100272706A1, “ANTIVIRALS” (priority 2007, published 2010).

Test system: vaccinia virus mature virions (EGFP-MV)
Assay type: cell-based

Molecule | effect of expressed construct on infection | inhibition of infection by expression of construct [%]
dominant negative dynamin (K44A) (protein, UniProt Q05193 1-864, looked up, variant K44A) Dynamin-1: MGNRGMEDLIPLVNRLQDAFSAIGQNADLDLPQIAVVGGQSAGASSVLENFVGRDFLPRGSGIVTRRPLVLQLVNATTEYAEFLHCKGKKFTDFEEVRLEIEAETDRVTGTNKGISPVPINLRVYSPHVLNLTLVDLPGMTKVPVGDQPPDIEFQIRDMLMQFVTKENCLILAVSPANSDLANSDALKVAKEVDPQGQRTIGVITKLDLMDEGTDARDVLENKLLPLRRGYIGVVNRSQKDIDGKKDITAALAAERKFFLSHPSYRHLADRMGTPYLQKVLNQQLTNHIRDTLPGLRNKLQSQLLSIEKEVEEYKNFRPDDPARKTKALLQMVQQFAVDFEKRIEGSGDQIDTYELSGGARINRIFHERFPFELVKMEFDEKELRREISYAIKNIHGIRTGLFTPDMAFETIVKKQVKKIREPCLKCVDMVISELISTVRQCTKKLQQYPRLREEMERIVTTHIREREGRTKEQVMLLIDIELAYMNTNHEDFIGFANAQQRSNQMNKKKTSGNQDEILVIRKGWLTINNIGIMKGGSKEYWFVLTAENLSWYKDDEEKEKKYMLSVDNLKLRDVEKGFMSSKHIFALFNTEQRNVYKDYRQLELACETQEEVDSWKASFLRAGVYPERVGDKEKASETEENGSDSFMHSMDPQLERQVETIRNLVDSYMAIVNKTVRDLMPKTIMHLMINNTKEFIFSELLANLYSCGDQNTLMEESAEQAQRRDEMLRMYHALKEALSIIGDINTTTVSTPMPPPVDDSWLQVQSVPAGRRSPTSSPTPQRRAPAVPPARPGSRGPAPGPPPAGSALGGAPPVPSRPGASPDPFGPPPQVPSRPNRAPPGVPSRSGQASPSRPESPRPPFDL | no impact | 
AID (protein, UniProt Q9GZX7 1-198, looked up) Single-stranded DNA cytosine …: MDSLLMNRRKFLYQFKNVRWAKGRRETYLCYVVKRRDSATSFSLDFGYLRNKNGCHVELLFLRYISDWDLDPGRCYRVTWFTSWSPCYDCARHVADFLRGNPNLSLRIFTARLYFCEDRKAEPEGLRRLHRAGVQIAIMTFKDYFYCWNTFVENHERTFKAWEGLHENSVRLSRQLRRILLPLYEVDDLRDAFRTLGL |  | 80
